From article PMC8760513, “Mechanistic details of the actinobacterial lyase-catalyzed degradation reaction of 2-hydroxyisobutyryl-CoA” (The Journal of Biological Chemistry, 2021)

B1: AcHACL (Actinomycetospora chiangmaiensis DSM 45062) (protein)
chain: MADRQDAERSGAGPARQSVPVASLVAEFLQEHGVDRVFGLQGGHIQPIWDQLARRGVRIVDVRDEGSAVHMAHAHTELTGQTAVAMVTAGPGVTNTVTAVANASVSRIPLLVIGGCPPIPQSNMGPLQDIPHTAILEPITRLARTLRSADQVLREFDEAWARASGDRGEPGPVYLEIPTDVLRRDVPPALQMREHLRAKPKRRPQPHPDDVAAVADLIRAAEKPAIISGRGARTTDGTDLVRLLDASGAAYLDTQESRGLVPDSHPAAVGSARSAVMRDTDLLITVGRQLDYQLGMGSPAVFPHAKVVRIADTASELIDNRRGEVEILAEPGAALAAIADALKDHTPDTSWRDELKAKHRKRAEDYRQALHSTENGADGHIHPNRIFGALDALDGDVLDLGETIMIADGGDLLSFGRLGITKARRYLDAGAFGCLGVATPFAIGAALAYPDRPVVAVTGDGAFGITATEIDTAVRHDAKIVVIVSNNRAWNIERYDQAENYGLVVGTDLADSDYAGVARAFGAHGERVTDPAELEGAIRRALANAPALVDVVTTQDAASPDSGKGLGFVPDYQALTPWNDAEVARRQEGI
B2: AcHACL (Actinomycetospora chiangmaiensis DSM 45062; E493A) (protein)
chain: MADRQDAERSGAGPARQSVPVASLVAEFLQEHGVDRVFGLQGGHIQPIWDQLARRGVRIVDVRDEGSAVHMAHAHTELTGQTAVAMVTAGPGVTNTVTAVANASVSRIPLLVIGGCPPIPQSNMGPLQDIPHTAILEPITRLARTLRSADQVLREFDEAWARASGDRGEPGPVYLEIPTDVLRRDVPPALQMREHLRAKPKRRPQPHPDDVAAVADLIRAAEKPAIISGRGARTTDGTDLVRLLDASGAAYLDTQESRGLVPDSHPAAVGSARSAVMRDTDLLITVGRQLDYQLGMGSPAVFPHAKVVRIADTASELIDNRRGEVEILAEPGAALAAIADALKDHTPDTSWRDELKAKHRKRAEDYRQALHSTENGADGHIHPNRIFGALDALDGDVLDLGETIMIADGGDLLSFGRLGITKARRYLDAGAFGCLGVATPFAIGAALAYPDRPVVAVTGDGAFGITATEIDTAVRHDAKIVVIVSNNRAWNIARYDQAENYGLVVGTDLADSDYAGVARAFGAHGERVTDPAELEGAIRRALANAPALVDVVTTQDAASPDSGKGLGFVPDYQALTPWNDAEVARRQEGI
B3: AcHACL (Actinomycetospora chiangmaiensis DSM 45062; E493Q) (protein)
chain: MADRQDAERSGAGPARQSVPVASLVAEFLQEHGVDRVFGLQGGHIQPIWDQLARRGVRIVDVRDEGSAVHMAHAHTELTGQTAVAMVTAGPGVTNTVTAVANASVSRIPLLVIGGCPPIPQSNMGPLQDIPHTAILEPITRLARTLRSADQVLREFDEAWARASGDRGEPGPVYLEIPTDVLRRDVPPALQMREHLRAKPKRRPQPHPDDVAAVADLIRAAEKPAIISGRGARTTDGTDLVRLLDASGAAYLDTQESRGLVPDSHPAAVGSARSAVMRDTDLLITVGRQLDYQLGMGSPAVFPHAKVVRIADTASELIDNRRGEVEILAEPGAALAAIADALKDHTPDTSWRDELKAKHRKRAEDYRQALHSTENGADGHIHPNRIFGALDALDGDVLDLGETIMIADGGDLLSFGRLGITKARRYLDAGAFGCLGVATPFAIGAALAYPDRPVVAVTGDGAFGITATEIDTAVRHDAKIVVIVSNNRAWNIQRYDQAENYGLVVGTDLADSDYAGVARAFGAHGERVTDPAELEGAIRRALANAPALVDVVTTQDAASPDSGKGLGFVPDYQALTPWNDAEVARRQEGI

What follows are proteins tested on CC(C)(O)C(=O)SCCNC(=O)CCNC(=O)[C@H](O)C(C)(C)COP(=O)(O)OP(=O)(O)OC[C@H]1O[C@@H](n2cnc3c(N)ncnc32)[C@H](O)[C@@H]1OP(=O)(O)O (assay: purified protein). Conditions: lyase direction, 37 °C, pH 7.2, 100 mM potassium phosphate, 10% glycerol, 0.2 mM ThDP, 0.2 mM ADP, 5 mM MgCl2, complex structure with dzThDP.
B1 showed a Km of 120 ± 12 µM, a Vmax of 1.2 µmol/min/mg and a kcat of 1.3 s⁻¹. For the same protein, the kcat/Km was 11000 M⁻¹ s⁻¹. With B2 the Km was 21 ± 4 µM, the Vmax was 0.098 µmol/min/mg and the kcat was 0.11 s⁻¹. The kcat/Km was 5100 M⁻¹ s⁻¹. With B3 the Km was 79 ± 7 µM, the Vmax was 0.025 µmol/min/mg and the kcat was 0.03 s⁻¹. The kcat/Km was 340 M⁻¹ s⁻¹.
